Laboratory results taken from patent US11332546B2, “Protease inhibitory antibodies and methods of use thereof” (The Regents of The University of California, priority 2019, dated 2022).

What was measured:
[1] = target: T1, cdMMP-12 mutant D4 (Homo sapiens, UniProt P39900, A167E/A173P/A252Q/H206S/I245T/K233R/M156E/N119Q/N126H/R135E/T215V/V161I/Y113D/Y132K); assay: FRET peptide inhibition assay, cdMMP-12 D4; assay type: biochemical; details: cdMMP-12 D4, FRET peptide, 31-500 nM Fab
T1 construct: hexahistidine (C); made in house; host or cells: E. coli BL21, pET32b (cytoplasmic, soluble fraction)
T1 sequence (P39900 106-263 Y113D/N119Q/N126H/Y132K/R135E/M156E/V161I/A167E/A173P/H206S/T215V/K233R/I245T/A252Q): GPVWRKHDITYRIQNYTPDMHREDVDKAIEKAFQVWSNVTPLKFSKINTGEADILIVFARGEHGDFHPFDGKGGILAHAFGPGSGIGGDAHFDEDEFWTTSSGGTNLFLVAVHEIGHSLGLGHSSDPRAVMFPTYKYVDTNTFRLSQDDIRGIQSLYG
Protocol: (§1) FRET peptide inhibition assays In 96-well assay plates (Corning), 60/250/350/10/10/30 nM of (cd)MMP-1/-7/-9/-12 D4/-12 wt/-14 were preincubated with 1 nM-1 μM purified Fabs for 30 min at room temperature then 1 μM substrate M-2350 (Bachem) was added. Generated fluorescent signals (λEx=328 nm, λEm=393 nm) were monitored at 37° C. to measure the initial velocities. To calculate inhibition constants (KIs), data were fit with the equations for slow tight-binding inhibitors. The inhibition type of the Fabs was determined using the initial velocities of cdMMP-12 D4 as a function of substrate concentration (250-2000 nM) at various Fab concentrations (31-500 nM). The values of Vmax and Km were derived from linearization in accordance with the Lineweaver-Burk equation.

[2] = target: T2, cdMMP-12 wt (Homo sapiens, UniProt P39900); assay: Elastin-FITC hydrolysis inhibition, cdMMP-12 wt; assay type: biochemical; details: 7 nM wt cdMMP-12, 37° C., 12 h
T2 construct: hexahistidine (C); made in house; host or cells: E. coli BL21 (pET32b, cytoplasmic)
T2 sequence (P39900 106-263): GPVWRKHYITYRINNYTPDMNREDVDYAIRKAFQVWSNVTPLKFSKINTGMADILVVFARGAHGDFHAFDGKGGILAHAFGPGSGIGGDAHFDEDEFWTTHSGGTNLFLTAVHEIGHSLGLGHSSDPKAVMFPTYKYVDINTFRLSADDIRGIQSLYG
Protocol: Inhibition tests with macromolecular substrates 10 μg/mL FITC-conjugated elastin (AnaSpec) was incubated with 7 nM cdMMP-12 D4/wt and 2-2000 nM purified Fab in 50 mM Tris-HCl, 150 mM NaCl, 5 mM CaCl2), 100 μM ZnCl2 pH 7.5. Generated fluorescent signals were measured at 12 h with λEx of 490 nm and λEm of 520 nm. For inhibition assays on fibronectin, 200 nM fibronectin (Corning) was incubated with 200-350 nM cdMMP-12 wt and 2 μM GM6001 or 0.1-6 μM Fabs in 50 mM HEPES, 150 mM NaCl pH 7.5 at 37° C. for 2-4 h. The samples were separated on 5% non-reducing SDS-PAGE and analyzed by western blotting with anti-Fibronectin antibody (Abcam) and chemiluminescent substrate (Thermo Scientific). For inhibition assays on modified TEM-1 carrying cleavable sequence ([…] (SEQ ID NO:134)) and a N-terminal HA tag, 250 nM modified TEM-1 was incubated with 700 nM cdMMP-12 wt and 10 μM Fabs in 50 mM HEPES, 150 mM NaCl pH 7.5 at 37° C. for 4 h. The samples were separated on 12% non-reducing SDS-PAGE, and the modified TEM-1 was visualized by western blotting using anti-HA antibody (Invitrogen) and chemiluminescent substrate. Assays without cdMMP-12s or Fabs were performed as controls.

[3] = target: T3, MMP-1 (Homo sapiens, UniProt P03956); assay: FRET peptide inhibition assay, MMP-1; assay type: biochemical
T3 construct: purchased AnaSpec
T3 sequence (P03956 100-469): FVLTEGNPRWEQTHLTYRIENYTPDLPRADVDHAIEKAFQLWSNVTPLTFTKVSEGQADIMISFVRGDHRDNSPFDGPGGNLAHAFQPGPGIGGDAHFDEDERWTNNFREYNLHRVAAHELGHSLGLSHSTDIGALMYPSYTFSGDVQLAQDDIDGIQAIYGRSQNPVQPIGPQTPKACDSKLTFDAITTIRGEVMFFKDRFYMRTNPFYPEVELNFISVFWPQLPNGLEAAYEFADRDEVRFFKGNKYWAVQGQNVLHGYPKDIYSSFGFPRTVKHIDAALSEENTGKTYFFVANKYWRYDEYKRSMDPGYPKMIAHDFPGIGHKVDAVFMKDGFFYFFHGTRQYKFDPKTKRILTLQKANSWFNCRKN
Protocol: as §1

[4] = target: cdMMP-9; assay: FRET peptide inhibition assay, cdMMP-9 (Example 2); assay type: biochemical; details: FRET peptide; read-out: K1 toward cdMMP-9
Chain of cdMMP-9 (P14780 with tags, fused parts or gaps DEL216-390 limits assumed): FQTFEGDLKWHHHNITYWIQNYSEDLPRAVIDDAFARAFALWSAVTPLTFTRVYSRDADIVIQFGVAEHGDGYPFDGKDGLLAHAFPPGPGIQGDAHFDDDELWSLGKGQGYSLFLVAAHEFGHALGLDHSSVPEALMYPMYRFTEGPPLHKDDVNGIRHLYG
Protocol: as §1

[5] = target: T1, cdMMP-12 mutant D4; assay: Proteolytic stability of Fabs with cdMMP-12 D4; assay type: physicochemical; details: 2 μM Fab, 2 μM cdMMP-12 D4, 4 h, 37° C.
Protocol: (§2) Proteolytic stability tests 2 μM purified Fabs were incubated with 2 μM cdMMP-12 wt/D4 in 50 mM HEPES, 150 mM NaCl pH 7.5 at 37° C. for 4 h. Samples were analyzed by using 12% non-reducing SDS-PAGE and stained with Coomassie blue. Densitometric interpretation was conducted using a ChemiDoc imager (Bio-Rad).

[6] = target: T4, MMP-7 (Homo sapiens, UniProt P09237); assay: FRET peptide inhibition assay, MMP-7; assay type: biochemical
T4 construct: purchased AnaSpec
T4 sequence (P09237 95-267): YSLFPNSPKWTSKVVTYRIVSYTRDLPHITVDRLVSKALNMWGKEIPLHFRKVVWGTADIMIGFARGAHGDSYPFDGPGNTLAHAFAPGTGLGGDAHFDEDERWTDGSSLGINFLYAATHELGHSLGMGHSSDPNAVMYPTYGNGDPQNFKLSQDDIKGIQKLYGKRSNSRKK
Protocol: as §1

[7] = target: cdMMP-9; assay: Bio-layer interferometry on cdMMP-9; assay type: binding; details: read-out: KD toward cdMMP-9
[8] = target: T2, cdMMP-12 wt; assay: Proteolytic stability of Fabs with cdMMP-12 wt; assay type: physicochemical; details: 2 μM Fab, 2 μM cdMMP-12 wt, 4 h, 37° C.
Protocol: as §2

[9] = target: cdMMP-14 (Homo sapiens, UniProt P50281); assay: Bio-layer interferometry on cdMMP-14; assay type: binding; set-up: human MMP-14 (residue 114-320); hexahistidine (C); made in house; host or cells: E. coli periplasm; details: read-out: KD toward cdMMP-14
[10] = target: T2, cdMMP-12 wt; assay: Fibronectin proteolysis inhibition, cdMMP-12 wt (western blot); assay type: biochemical; details: 6 μM Fab; 350 nM wt cdMMP-12, 200 nM fibronectin, 37° C.
Protocol: Inhibition tests with macromolecular substrates 10 μg/mL FITC-conjugated elastin (AnaSpec) was incubated with 7 nM cdMMP-12 D4/wt and 2-2000 nM purified Fab in 50 mM Tris-HCl, 150 mM NaCl, 5 mM CaCl2), 100 μM ZnCl2 pH 7.5. Generated fluorescent signals were measured at 12 h with λEx of 490 nm and λEm of 520 nm. […] The samples were separated on 5% non-reducing SDS-PAGE and analyzed by western blotting with anti-Fibronectin antibody (Abcam) and chemiluminescent substrate (Thermo Scientific). […] Assays without cdMMP-12s or Fabs were performed as controls.

[11] = target: T2, cdMMP-12 wt; assay: FRET peptide inhibition assay, cdMMP-12 wt; assay type: biochemical; details: toward cdMMP-12 wild type
Protocol: as §1

[12] = target: T5, cathepsin B (Homo sapiens, UniProt P07858); assay: Binding kinetics by biolayer interferometry, Fabs on cathepsin B; details: Fab, read-out: Binding Affinity KD
T5 construct: human cathepsin B (residue 66-339); hexahistidine (C); made in house; host or cells: E. coli (periplasm)
Protocol: Binding kinetics of produced antibodies towards associated protease targets were analyzed by using biolayer interferometry (ForteBio). For Fabs, biotinylated proteases were immobilized on streptavidin biosensors, and Fab binding to the sensors in absence of protease was monitored as backgrounds. For IgGs, protein A sensors were used and protease bindings without IgG were checked as backgrounds. kon and koff were determined for KD calculations. […] Fab in vitro stability was tested by incubating 1 μM Fab with 1 μM of the respective protease in the assay buffer for 12 hours and the samples were analyzed by SDS-PAGE.

[13] = target: T5, cathepsin B; assay: FRET peptide inhibition assay, cathepsin B (M-2595); assay type: biochemical; details: Fab; for Ki: cathepsin B, FRET peptide, read-out: Inhibition Potency KI
Protocol: (§3) For inhibition tests, 1 μM Fabs were 2-fold serially diluted into protease specific assay buffer and incubated with 1-10 nM proteases for 30 min at room temperature. […] Inhibition percentages at given concentrations were calculated by comparing the initial reaction rates in the presence or absence of inhibitor. IC50 was determined as the concentration that achieved 50% inhibition, and KI values were calculated using KI=IC50/(S/Km+1). Vmax and Km at various Fab concentrations were measured to determine the inhibition type. FRET inhibition assays were also used for selectivity tests of isolated Fabs with the relevant proteases.

[14] = target: T6, cathepsin K (Homo sapiens, UniProt P43235); assay: FRET inhibition selectivity test, cathepsin K; assay type: biochemical; details: same Fab concentrations as for cathepsin B
T6 construct: hexahistidine (C); made in house; host or cells: E. coli (periplasm)
T6 sequence (P43235 115-329): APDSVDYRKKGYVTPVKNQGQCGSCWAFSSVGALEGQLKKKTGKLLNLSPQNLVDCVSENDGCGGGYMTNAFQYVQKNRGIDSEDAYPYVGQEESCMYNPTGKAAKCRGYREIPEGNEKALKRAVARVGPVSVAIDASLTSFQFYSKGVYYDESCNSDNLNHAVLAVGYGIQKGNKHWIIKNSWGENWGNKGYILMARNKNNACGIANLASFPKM
Protocol: as §3

[15] = system: HEK293F cells expressing APP571-696; assay: Aβ40 formation in HEK293F cells expressing APP571-696 (ELISA); assay type: cell-based; details: HEK293 cells expressing APP, IgG 72 h, dose-dependent
Protocol: For amyloid precursor protein (APP) degradation studies, APP571-696 was cloned to the C-terminal of maltose binding protein (MBP) for E. coli expression and purified using amylose resin (NEB). 5 μM purified MBP-APP was incubated with 1 μM BACE1-Fc in the absence or presence of 1 μM IgG in BACE1 assay buffer at 37° C. for 24 h. In addition, APP571-696 was cloned to a pcDNA plasmid carrying a SPE leader for secretion expression. Transfected HEK293F cells were cultured in Expi293 media for 72 hrs with the presence of 14-800 nM purified IgG. The supernatants were clarified by centrifugation and 0.45 μm filtration, and produced Aβ1-40 was quantified by ELISA (Abcam).

B1: Fab LH11: anti-MMP-12 antibody clone; VL SEQ ID NO:124, VH SEQ ID NO:126, CDR-H3 SEQ ID NO:129 (antibody, V domains shown)
VH: EVQLVESGGGLVQPGGSLRLSCAASGFNLSYYSMHWVRQAPGKGLEWVAYIYPYYGSTYYADSVKGRFTISADTSKNTAYLQMNSLRAEDTAVYYCARFLLSIGKLFVGDGSILHVWLYGMDYWGQGTLVTVSSAS
VL: DIQMTQSPSSLSASVGDRVTITCRASQSVSSAVAWYQQKPGKAPKLLIYSASSLYSGVPSRFSGSRSGTDFTLTISSLQPEDFATYYCQQAYYGYLFTFGQGTKVEIKR
Type of inhibition (Lineweaver-Burk) [1]: substrate competitive manner | Inhibition of elastin-FITC hydrolysis ([2]; 2 nM Fab): 0% | Inhibition of elastin-FITC hydrolysis ([2]; 16 nM Fab): 49% | Inhibition of elastin-FITC hydrolysis ([2]; 63 nM Fab): 62% | Inhibition of elastin-FITC hydrolysis ([2]; 500 nM Fab): 86% | Inhibition of MMP-1 (selectivity) [3]: did not inhibit and non- | Ki [4]: 6200 nM | Degradation of Fab by cdMMP-12 D4 [5]: no significant degradation | Inhibition of MMP-7 (selectivity) [6]: did not inhibit and non- | Kd [7]: 740 nM | Fab remained intact after exposure to cdMMP-12 wt [8]: 67% | Kd [9]: ~700 nM | Fibronectin remaining after cdMMP-12 wt hydrolysis [10]: significant amounts of fibronectin remained | Inhibition FRET peptide [11]: non-

B2: Fab CBA1: anti-cathepsin B antibody clone; VL SEQ ID NO:110, VH SEQ ID NO:85, CDR-H3 SEQ ID NO:87 (antibody, V domains shown)
VH: EVQLVESGGGLVQPGGSLRLSCAASGFNLYSSYIHWVRQAPGKGLEWVASIYPYSSSTSYADSVKGRFTISADTSKNTAYLQMNSLRAEDTAVYYCARGGGSWSAMDYWGQGTLVTVSSAS
VL: DIQMTQSPSSLSASVGDRVTITCRASQSVSSAVAWYQQKPGKAPKLLIYSASSLYSGVPSRFSGSRSGTDFTLTISSLQPEDFATYYCQQHYSLITFGQGTKVEIKR
Kd [12]: 290 nM | Inhibition of cathepsin B (in words) [13]: inhibited cathepsin B completely | Ki [13]: 200 nM | Inhibition of cathepsin K (selectivity) [14]: but not cathepsin K

B3: IgG B2B2: anti-BACE1 IgG of clone B2B2 (antibody, V domains shown)
VH: EVQLVESGGGLVQPGGSLRLSCAASGFNISSYYMHWVRQAPGKGLEWVASIYSSYGYTYYADSVKGRFTISADTSKNTAYLQMNSLRAEDTAVYYCARYWGYYAWFGSHPWAYGAFDYWGQGTLVTVSSAS
VL: DIQMTQSPSSLSASVGDRVTITCRASQSVSSAVAWYQQKPGKAPKLLIYSASSLYSGVPSRFSGSRSGTDFTLTISSLQPEDFATYYCQQYGYYLITFGQGTKVEIKR
Reduction of amyloid beta (Aβ40) production [15]: 80%

B4: Fab CBA2: anti-cathepsin B antibody clone; VL SEQ ID NO:108, VH SEQ ID NO:81, CDR-H3 SEQ ID NO:84 (antibody, V domains shown)
VH: EVQLVESGGGLVQPGGSLRLSCAASGFNIYYYSIHWVRQAPGKGLEWVAYIYSYYGSTYYADSVKGRFTISADTSKNTAYLQMNSLRAEDTAVYYCARYGYPGGYHFWGWWSSPYAFDYWGQGTLVTVSSAS
VL: DIQMTQSPSSLSASVGDRVTITCRASQSVSSAVAWYQQKPGKAPKLLIYSASSLYSGVPSRFSGSRSGTDFTLTISSLQPEDFATYYCQQWSSSWGYLITFGQGTKVEIKR
Kd [12]: 190 nM | Inhibition of cathepsin B (in words) [13]: inhibited cathepsin B completely | Ki [13]: 130 nM | Inhibition of cathepsin K (selectivity) [14]: but not cathepsin K
